Residue numbers refer to the chain shown, from its start. Numbers in names are those of the source. Where “and” joins values, the source holds several entries; their conditions need not be identical. Equal entries are not always repeated.
T1: mCherry fusion FUS LC domain (UniProt P35637 2-214)
T1 sequence (looked up): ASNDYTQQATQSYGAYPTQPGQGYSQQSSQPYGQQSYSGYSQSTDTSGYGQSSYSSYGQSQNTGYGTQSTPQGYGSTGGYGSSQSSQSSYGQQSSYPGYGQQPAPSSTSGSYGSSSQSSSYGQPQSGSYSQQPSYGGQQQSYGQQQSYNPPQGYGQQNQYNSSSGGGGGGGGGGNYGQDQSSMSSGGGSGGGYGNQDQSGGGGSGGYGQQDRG

B1: mCherry fusion hnRNPA2 LC domain F291S mutant (domain or fragment, UniProt P22626-2 181-341, looked up)
chain: MQEVQSSRSGRGGNFGFGDSRGGGGNFGPGPGSNFRGGSDGYGSGRGFGDGYNGYGGGPGGGNFGGSPGYGGGRGGYGGGGPGYGNQGGGYGGGYDNYGGGNYGSGNYNDSGNYNQQPSNYGPMKSGNFGGSRNMGGPYGGGNYGPGGSGGSGGYGGRSRY
B2: GFP fusion ZEB2 ZnF6-8 (domain or fragment, UniProt O60315 999-1076, looked up)
chain: YACDLCDKTFQKSSSLLRHKYEHTGKRPHQCQICKKAFKHKHHLIEHSRLHSGEKPYQCDKCGKRFSHSGSYSQHMNH
B3: GFP-fused ZnFs of KLF4 (domain or fragment)
chain: not shown
B4: GFP:ZEB2-ZnF6-7 (domain or fragment, UniProt O60315 999-1049, looked up)
chain: YACDLCDKTFQKSSSLLRHKYEHTGKRPHQCQICKKAFKHKHHLIEHSRLH
B5: GFP:ZNF512B ZnF3-5 (domain or fragment, UniProt Q96KM6 540-653, looked up)
chain: LKCQHCRKQFKSKAGLNYHTMAEHSAKPSDAEASEGGEQEERERLRKVLKQMGRLRCPQEGCGAAFSSLMGYQYHQRRCGKPPCEVDSPSFPCTHCGKTYRSKAGHDYHVRSEH
B6: GFP:ZEB2-ZnF1-4 (domain or fragment, UniProt O60315 211-334, looked up)
chain: LTCPYCDRGYKRLTSLKEHIKYRHEKNEENFSCPLCSYTFAYRTQLERHMVTHKPGTDQHQMLTQGAGNRKFKCTECGKAFKYKHHLKEHLRIHSGEKPYECPNCKKRFSHSGSYSSHISSKKC
B7: GFP:ZEB1-ZnF5-7 (domain or fragment, UniProt P37275 904-981, looked up)
chain: B2 chain with T9I, Q30E, Q32G, S48M

Target: the molecule itself
Experiment: AUC

| Binder | stoichiometry N |
| --- | --- |
| B1 | 2 and 3 |

The binders below were run against mCherry fusion TDP43 LC domain (UniProt Q13148 262-414) (assay: hydrogel binding assay).
mCherry fusion TDP43 LC domain, sequence (Q13148 262-414): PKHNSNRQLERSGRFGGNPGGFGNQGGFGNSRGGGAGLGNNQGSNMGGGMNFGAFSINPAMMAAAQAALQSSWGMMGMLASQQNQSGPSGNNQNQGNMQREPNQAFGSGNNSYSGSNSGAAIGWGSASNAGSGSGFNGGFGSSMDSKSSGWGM

| binding result | Binder |
| --- | --- |
| binds | B2 |

Each binder was assayed against T1, mCherry fusion FUS LC domain (assay: hydrogel binding assay).

| binding result | Binder |
| --- | --- |
| binds | B2 |

Each binder was assayed against mCherry fusion hnRNPA2 LC domain (UniProt P22626-2 181-341) (assay: hydrogel binding assay).

| binding result | Binder |
| --- | --- |
| binds | B3 |
| binds | B4 |
| binds | B5 |
| binds | YACDLCDKTFQKSSSLLRHKYEH (domain or fragment, UniProt O60315 999-1021, looked up) [GFP:ZEB2-ZnF6] |
| binds | B6 |
| binds | B7 |
| binds | B2 |
| binds | FSCQFCKESFPGPIPLHQHERYLCK (domain or fragment, UniProt O60315 581-605, looked up) [GFP:ZEB2-ZnF5] |
| binds | YQCDKCGKRFSHSGSYSQHMNH (domain or fragment, UniProt O60315 1055-1076, looked up) [GFP:ZEB2-ZnF8] |
| binds | HQCQICKKAFKHKHHLIEHSRLHSGEKPYQCDKCGKRFSHSGSYSQHMNH (domain or fragment, UniProt O60315 1027-1076, looked up) [GFP:ZEB2-ZnF7-8] |
| binds | HQCQICKKAFKHKHHLIEHSRLH (domain or fragment, UniProt O60315 1027-1049, looked up) [GFP:ZEB2-ZnF7] |
